Assay [1] concerns the target Polyspecificity Reagent (PSR). As to the kind of experiment: flow cytometry, IgG presented on yeast, biotinylated PSR, normalised MFI.
Assay [2] concerns the target T1, human TIGIT expressed on cells (human, UniProt Q495A1 22-244).
T1 construct: whole, on cells; on Jurkat E6.1 cells transduced with human TIGIT, on Promega TIGIT effector cells or on human primary T cells; the cell is named under assay; also called hTIGIT; Jurkat-hTIGIT
T1 sequence (looked up): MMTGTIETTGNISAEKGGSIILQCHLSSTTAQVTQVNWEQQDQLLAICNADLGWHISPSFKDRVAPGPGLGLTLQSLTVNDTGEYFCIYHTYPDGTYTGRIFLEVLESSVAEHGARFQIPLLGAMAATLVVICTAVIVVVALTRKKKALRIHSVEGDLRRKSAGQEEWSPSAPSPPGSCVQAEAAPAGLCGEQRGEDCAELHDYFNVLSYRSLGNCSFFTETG
As to the kind of experiment: FACS competition on Jurkat-hTIGIT; competitor CD155-His 15 ug/ml.

Assay [3] concerns the target T1, human TIGIT expressed on cells. Description: flow cytometry, Jurkat-hTIGIT, MFI. As for the experimental part: Antibodies were incubated with the cells for 20 min at 4° C. in FACS buffer. […] Fluorescence intensity was analysed using LSR BD Fortessa and cell binding was recorded as the median fluorescence intensity of PE in cells expressing TIGIT at their surface.
The half-maximal concentration of binding (EC50) to Jurkat-hTIGIT was calculated using a four-variable curve-fit equation in Prism.

Assay [4] deals with T2, recombinant human TIGIT protein (human, UniProt Q495A1 22-141, limits assumed).
T2 construct: also called hTIGIT (Creative Biomart); antigen
T2 sequence (looked up): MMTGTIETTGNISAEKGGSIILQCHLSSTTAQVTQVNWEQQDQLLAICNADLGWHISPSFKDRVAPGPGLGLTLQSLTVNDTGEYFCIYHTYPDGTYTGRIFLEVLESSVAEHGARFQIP
Description: Biacore T200 SPR, IgG captured, steady state model.

Assay [5] addresses T1, human TIGIT expressed on cells. As to the kind of experiment: flow cytometry, human primary CD8+ T cells (healthy PBMC), MFI on TIGIT+CD8+.
Assay [6] shares this target. As to the kind of experiment: flow cytometry, Jurkat-hTIGIT, MFI; end of the range tied to 313M32 by Table 16.
Assay [7] has the same target. Description: flow cytometry, CD8+ T cells from cancer patient PBMC, MFI on TIGIT+CD8+. The procedure:
Cells were distributed at 1×10^5 cells per well. […] Then, cells were washed and incubated with the following antibodies and life viability dye (LVD) mix: anti-CD4-PercP-Cy5.5 (clone A161A1, BioLegend 357414); anti-CD8-BV510 (clone SK1, BD Bioscience 563919) and LVD efluor 520 (eBioscience 65-0867-14). Cells were washed and fixed and surface staining was quantified using BD LSR Fortessa. Flow cytometry data was analysed using FlowJo V10.1. TIGIT MFI on gated LVD-TIGIT+CD8+ cells was used to calculate EC50 values.

Positions count from the first letter of the chain named.

The values below come from patent US20190100591A1 (ITEOS BELGIUM, published 2019).

B1: anti-TIGIT antibody clone 26493 (antibody, V domains shown)
VH: EVQLVESGGGLVQPGRSLRLSCAASGFTFGDYAMHWVRQAPGKGLEWVSGITWNSGSIGYADSVKGRFTISRDNAKNSLYLQMNSLRAEDTALYYCAKPVPKSRGLDVWGQGTMVTVSS
VL: DIQLTQSPSSVSASVGDRVTITCRASQGISSWLAWYQQKPGKAPKLLIYGASSLQSGVPSRFSGSGSGTDFTLTISSLQPEDFATYYCQQAFYLPWTFGGGTKVEIK
For B1, the Polyspecificity Reagent (PSR) Score (0-1) in assay [1] was 0 score (0-1).

B2: anti-TIGIT antibody clone 29527 (antibody, V domains shown)
VH: QVQLVESGGGVVQPGRSLRLSCAASGFTFSSSYMHWVRQAPGKGLEWVAVIGADGSNKYYADSVEGRFTISRDNSKNTLYLQMNSLRAEDTALYYCAKPVPRRRGLDVWGQGTMVTVSS
VL: B1 VL
Take B2: the Polyspecificity Reagent (PSR) Score (0-1) in assay [1] was 0.12 score (0-1).

B3: anti-TIGIT antibody clone 29523 (antibody, V domains shown)
VH: B2 VH with Q1E, S30G, S32Y, G52W, A53P, Y59L, E65K, R102K, R103S, G105A
VL: B1 VL
B3: the Polyspecificity Reagent (PSR) Score (0-1) in assay [1] is 0.12 score (0-1).

B4: anti-TIGIT antibody clone 29520 (antibody, V domains shown)
VH: B1 VH with E1Q, G30R, S57L, K102R, S103L
VL: B1 VL
As for B4, the Polyspecificity Reagent (PSR) Score (0-1) in assay [1] was 0.32 score (0-1).

B5: anti-TIGIT antibody clone 26486 (antibody, V domains shown)
VH: QVQLQESGPGLVKPSETLSLTCAVSGYSISSGYYWAWIRQPPGKGLEWIGSIYHSGSTYYNPSLKSRVTISVDTSKNQFSLKLSSVTAADTAVYYCAIEGANYYDFGYVAFDIWGQGTMVTVSS
VL: EIVMTQSPATLSVSPGERATLSCRASQSVSSNLAWYQQKPGQAPRLLIYGASTRATGIPARFSGSGSGTEFTLTISSLQSEDFAVYYCQQSPPWPRTFGGGTKVEIK
As for B5, the Polyspecificity Reagent (PSR) Score (0-1) in assay [1] was 0 score (0-1).

B6: anti-TIGIT antibody clone 29494 (antibody, V domains shown)
VH: QVQLQESGPGLVKPSETLSLTCTVSGGSISSGSYYLAWIRQPPGKGLEWIGSIFRSGSTYYNPSLESRVTISVDTSKNQFSLKLSSVTAADTAVYYCAIEGANFKDFGYVAFDIWGQGTMVTVSS
VL: B5 VL
Consider B6, for which the Polyspecificity Reagent (PSR) Score (0-1) in assay [1] was 0 score (0-1).

B7: anti-TIGIT antibody clone 31288 (antibody, V domains shown)
VH: B6 VH with V2L, M120T
VL: B5 VL
Regarding B7, in assay [1], the Polyspecificity Reagent (PSR) Score (0-1) is 0 score (0-1).

B8: anti-TIGIT antibody clone 29499 (antibody, V domains shown)
VH: B6 VH with V2L, G32S, S33R, L36W, F54G, R55T, E66K, A90T, K105R
VL: B5 VL
Consider B8, for which the Polyspecificity Reagent (PSR) Score (0-1) in assay [1] is 0.1 score (0-1).

B9: anti-TIGIT antibody clone 32931 (antibody, V domains shown)
VH: B6 VH with V2L, M120T
VL: B5 VL with Q27K, G50F, S91T, P92S
For the molecule B9, in assay [1], the Polyspecificity Reagent (PSR) Score (0-1) was 0 score (0-1).

B10: anti-TIGIT antibody 313M32 (antibody, V domains shown)
VH: QVQLQESGPGLVKPSETLSLTCAVSGYSITSDYAWNWIRQPPGKGLEWIGYISYSGSTSYNPSLRSRVTISRDTSKNQFFLKLSSVTAADTAVYYCARRQVGLGFAYWGQGTLVTVSS
VL: DIQMTQSPSSLSASVGDRVTITCKASQDVSTAVAWYQQKPGKAPKLLIYSASYRYTGVPSRFSGSGSGTDFTFTISSLQPEDIATYYCQQHYSTPWTFGGGTKVEIK
Turning to B10, in assay [2], the “Fold change of IC50 over IC50 of best clone (31282_up)” value was found to be 16.7 fold and the IC50 came out at 0.65 nM. Also, in assay [3], the EC50 turned out to be 0.44 nM and the “Fold change of EC50 over EC50 of best clone (31282_wu)” value was determined as 4.2 fold. For the same molecule, the dissociation constant Kd in assay [4] is 10.1 nM. Moreover, in assay [5], a half-maximal effect (EC50) was put at 1.45 nM and the “Fold change of EC50 over EC50 of best clone (31282_wu)” value stood at 7.5 fold. The molecule also yielded an EC50 in assay [6] of 0.445 nM. In addition, in assay [7], the EC50 worked out at 1 nM and the “Fold change of EC50 over EC50 of best clone (31282)” value was 8.3 fold.

B11: anti-TIGIT antibody clone 29513 (antibody, V domains shown)
VH: QVQLVQSGAEVKKPGSSVKVSCKASGGTFQNYAISWVRQAPGQGLEWMGVIVPIFGTANYAQKFQGRVTVTADESTSTAYMELSSLRSEDTAVYYCARLHLGQKAYYGMDVWGQGTTVTVSS
VL: DIQMTQSPSSLSASVGDRVTITCRASQSISSYLNWYQQKPGKAPKLLIYAASSLQSGVPSRFSGSGSGTDFTLTISSLQPEDFATYYCQQRYVFPPTFGGGTKVEIK
As to B11, in assay [1], the Polyspecificity Reagent (PSR) Score (0-1) was 0.01 score (0-1).
